Assay results from the DeepSol protein solubility set.

Test: soluble on expression in E. coli; label from the status in PepcDB or PDB records

Sequence | soluble on expression in E. coli
MYNSMDEVPVSLHASIDTGDGEFDMNALISNNAHILFIVLDSLRYDIALQEQTAGNTPNLNHYGQWTKCEAAGNFTWPSHHAMFSGFMPKPIDDTVNQTMLFFPKDIGLGRKGPKNAFAFDDATWIKSLENKGYQTICIGGVSFFNNRSGMGKVFPSMFKESYWHPRFACTVKESMDNQIHYIQKIMAERAGSQPVMMYINIDTIHYPNHFYVEGAAPGDTVETHAAALRYIDARIDGLLNIFRQTGGATFVIVCSDHGTCYGEDGKYFHSFNHPIVNTVPYMHFLLSGNHLEHHHHHH | soluble
MYPHIHRYKFESKNTNRHNHKIIGYTDNMIGIEAFHIHAYYGISSYNGHTHYFSGFTGLPIKTENGHIHRIEGILESASDHEHVYRNYTDENIEYISHSILKHAYV | not soluble
MYQHDIGKRSAKVKNVVERGAVKKFAEAIGDPNPIYWDEETGKRSRYGRNIAPPTFPRVFDYGVIEGLKLPAKGLIHGEQHFHYERPLFVGEELYCYAEVKDYFEKQSSMGLLGFLVIANNGEDADGNLIFTSTSTIMINEAVRKAMSV | soluble
MYQNFVTKHDTAIQTSRFSVTGNVIPAAPTGNIPVINGGSITAERAVVNLYANMNVSTSSDGSFIVAMKVDTSPTDPNCVISAGVNLSFAGTSYPIVGIVRFESASEQPTSIAGSEVEHYPIEMSVGSGGVCSARDCATVDIHPRTSGNNVFVGVICSSAKWTSGRVIGTIATTQVIHEYQVLQPLK | soluble
MYRIIEAPNSGKYPFSHSLLIGKSCIIDTGSGEALAPLRVDCVLNTHWHEDHIAMNSIGRKVLAHPLDAEAIESYEEFRRRYGIGDSVRLFINFEFGQVDDVFEDGEQLEFEGVSVEVIHTPGHSAGHCCFVINNEAVFLGDIDLTSFGPWYGCLDCDVDDFVRSVKKMMREVERRDIEIAIPSHGRPVYGKEEIIGAMREYLKKIFERDKAIRELVRLGVDPVGKGIIYRKIPEPREIYLHFEKIMVEKHLTTSLDEFCLDLEHHHHHH | not soluble
MYRNFFSLSELPFSISPDPKYLFMSERHREALTHLTYGLGEVGGFALLTGEVGTGKTTISRCLMEQLPQNTQAAFILNPTLSCQELLATLCDQLKIRYRKTGASLKTLTDKISEKLLKNHENDINTLLIIDEAQHLQPEVLEQLRLLTNLETNTKKLLQVILIGQPELQQLLQRRDLRQL | not soluble
MYSDDLLLEEDSADESSLANAFSRGMQLGSTDASSYSRRFNSNASTSSSNPTTQRRYAPNQAFSQVETGSPPSNDPHARFGQHIPGSQYIPHVSQNSPSRLGQQPPQRYNHGRPNAGRTMDRNHMNAQLPPSNTNSGGQQRSPRSSSYTNGVPWGRRTNNHVPNVPSTSHGRVDYGSIA | soluble
MYSDLAGKVVVITGSATGLGRAMGVRFAKEKAKVVINYRSRESEAHDVLEEIKKVGGEAIAVKGDVTVESDVVNLIQSAVKEFGTLDVMINNAGIENAVPSHEMPLEDWNKVINTNLTGAFLGSREAIKYFVEHDIKGSIINMSSVHEKIPWPLFVHYAASKGGVKLMTETLAMEYAPKGIRVNNIGPGAINTPINAEKFADPKKRADVESMIPMGYIGKPEEIAAVATWLASSEASYVTGITLFADGGMTLYPSFQAGRG | not soluble
MYSPKRVKLNVTSGMRKRPETGENNDDLYPPTALARNGISPYFIGKPRRKIVVETPSDSAQQQPPFKSRSQQNGLDDELDGIIIDEDEDRTVDVSFSQKQDTRKLKSRPFLGEKSSFKLGEIPKPKEEKRREEPFTMRGFDFGSDDKVTKIRDKICDIVDPTNARRTDPNFIRQMHENTLKGIEVASNPHFKKTRAPTKNRAAIQNTLGTLYPSFTTAAGQDPQNSKFQVPLDRQSSSQSIGSLAGIPPARRAPDIPKRCSNPLIRKAMGMDTEGGGKDEKMSGLRAEPTLKHFDENIISLIESEIMSVNNEIGWADVAGLEGAKKALREIVVLPFKRPDVFTGIRAPPKGVLLFGPPGTGKTMIGRCVASQCKATFFNISASSLTSKWVGEGEKLVRALFSVARLKLPSVIFIDEIDSLLSSRSESEHESSRRIKTEFLVQLDGVNTAPDERLLVLGATNRPQELDEAARRRFQKRLYIALPEPESRTQIVQNLLVGTRHDITNHNLERIRELTDGYSGADMRQLCTEAAMGPIRDIGDDIETIDKDDIRAVTVMDFAEAARVVRPTVDDSQLDAYAAWDKKFGCLPPPSISR | not soluble
